The source of these data is PMC7605441.

Assay [1] deals with RAD51 (UniProt Q08297). The assay can be described thus: co-IP of RAD51AP1-mCherry, RAD51-GFP blotted. The conditions noted are these: reference: wild type, asynchronous cells; sites T305.
Assay [2] concerns the target RAD51 (UniProt Q08297). The assay can be described thus: co-IP of RAD51-GFP, RAD51AP1-mCherry blotted. The note with it: reference: wild type, asynchronous cells; sites T305.

In the case of RAD51AP1 (from UniProt Q8C551) T305A, the results for the other: percent reduction vs wild type in the assay with RAD51 [1] and with RAD51 [2] were 90% and 62%, respectively.
